Key:
[1] = target: T1, EGFRvIII fragment amino acid residues 15 to 37, displayed on yeast (human); experiment: yeast surface display, flow cytometry
T1 construct: also called aa 15-37; fragment 15-37
T1 peptide: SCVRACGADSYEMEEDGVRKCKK
Source text: (§1) Assessment of the binding of anti-EGFRvIII mAbs to the fusion proteins expressed on yeast cell surface was done by flow cytometry analysis. Briefly, yeast cells were labeled with both the anti-hEGFRvIII mAb and chicken anti-Myc antibody, the latter being used to monitor the level of expression of the fusion protein. Following a wash step, binding of the primary antibodies is probed by a two-color indirect fluorescence labeling using secondary antibodies specific for mouse and chicken antibodies, respectively.

[2] = target: T2, EGFRvIII, full length, overexpressed on glioblastoma cells (human, UniProt P00533 298-623); experiment: cell-based or functional assay
[3] = target: T2, EGFRvIII, full length, overexpressed on …; experiment: cell-based or functional assay; remark: listed apart in the source
[4] = target: T3, recombinant human wild type EGFR protein (extracellular domain), denatured (human, UniProt P00533 25-645); experiment: ELISA Exp 2, purified mAb 1 ug/ml;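 also: ELISA of purified mAb binding to plate-coated antigen, native or heat/DTT-denatured, with pNPP substrate developed for 30 min and incubations at room temperature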
T3 construct: Same protein as m23 after 95 C for 5 min in PBS with 40 mM DTT (denatured, reduced); also called wt EGFR Denatured
Procedure: (§2) Pre- and post-immune sera titers of animals were assessed by ELISA on recombinant EGFRvIII protein. Unless otherwise stated, all incubations were performed at room temperature. […] Microplates were washed three times in PBS and blocked for 30 min with PBS containing 1% bovine serum albumin (BSA, Sigma Cat #A7030). Blocking buffer was removed and 25 μl of serial dilutions of sera samples were added. […] After a 1-h incubation, microplates were washed 4 times and 25 μl of p-nitrophenyl phosphate (pNPP) substrate (Sigma-Aldrich Canada Co., Oakville, ON) at 1 mg/ml in carbonate buffer at pH 9.6 was added and further incubated for 30 min.
(§3) Antigens at 1-2 mg/ml were incubated at 95° C. for 5 min in PBS containing DTT at a final concentration of 40 mM. They were then incubated on ice for 5 min and diluted at their final coating concentration for ELISA purpose.
(§4) ELISA was performed as described above (serum titer determination) using 25 μl of mAb supernatant (Exp 1) or purified mAb at 1 μg/ml (Exp 2).

[5] = target: T4, recombinant human EGFRvIII protein (extracellular domain), native (human, UniProt P00533 298-623); experiment: ELISA Exp 2, purified mAb 1 ug/ml;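 also: ELISA of purified mAb binding to plate-coated antigen, native or heat/DTT-denatured, with pNPP substrate developed for 30 min and incubations at room temperature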
T4 construct: also called hEGFRvIII
Procedure: as §2, §3, §4

[6] = target: T5, recombinant human wild type EGFR protein (extracellular domain), native (human, UniProt P00533 25-645); experiment: ELISA Exp 2, purified mAb 1 ug/ml;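 also: ELISA of purified mAb binding to plate-coated antigen, native or heat/DTT-denatured, with pNPP substrate developed for 30 min and incubations at room temperature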
T5 construct: also called wt EGFR; EGFR WT
Procedure: as §2, §3, §4

[7] = target: T6, recombinant human EGFRvIII protein (extracellular domain), denatured (human, UniProt P00533 298-623); experiment: ELISA Exp 2, purified mAb 1 ug/ml;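 also: ELISA of purified mAb binding to plate-coated antigen, native or heat/DTT-denatured, with pNPP substrate developed for 30 min and incubations at room temperature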
T6 construct: Same protein as m21 after 95 C for 5 min in PBS with 40 mM DTT (denatured, reduced); also called EGFRvIII Denatured
Procedure: as §2, §3, §4

[8] = target: T7, EGFRvIII amino acid residues 15 to 37 with Gly21 to Ala mutation (human); experiment: yeast display flow cytometry, Myc-normalized;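 also: Anti-EGFRvIII monoclonal antibodies tested by flow cytometry on yeast displaying alanine-substituted fragments, two-color indirect fluorescence with anti-Myc signal tracking fusion protein expression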
T7 construct: mutation is already in the entry
T7 peptide: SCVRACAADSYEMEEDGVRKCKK
Source text: as §1
(§5) To further characterize mAb epitopes within the EGFRvIII 15-37 region, an alanine scan of this region was performed, and modified fragments were expressed at the surface of the yeast. […] The resulting peptides were expressed at the surface of the yeast and each anti-EGFRvIII mAbs was tested on the corresponding yeast mutant strain by flow cytometry analysis. Thus, this assay determined the contribution of each amino acid(s) in the monoclonal antibody binding.

[9] = target: T8, EGFRvIII amino acid residues 15 to 37 with Asp30 to Ala mutation (human); experiment: yeast display flow cytometry, Myc-normalized;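 also: Anti-EGFRvIII monoclonal antibodies tested by flow cytometry on yeast displaying alanine-substituted fragments, two-color indirect fluorescence with anti-Myc signal tracking fusion protein expression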
T8 construct: mutation is already in the entry
T8 peptide: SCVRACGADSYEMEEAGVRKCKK
Source text: as §1, §5

[10] = target: T9, EGFRvIII amino acid residues 15 to 37 with Arg18 to Ala mutation (human); experiment: yeast display flow cytometry, Myc-normalized;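 also: Anti-EGFRvIII monoclonal antibodies tested by flow cytometry on yeast displaying alanine-substituted fragments, two-color indirect fluorescence with anti-Myc signal tracking fusion protein expression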
T9 construct: mutation is already in the entry
T9 peptide: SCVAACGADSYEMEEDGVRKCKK
Source text: as §1, §5

[11] = target: T10, EGFRvIII amino acid residues 15 to 37 with Val17 to Ala mutation (human); experiment: yeast display flow cytometry, Myc-normalized;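 also: Anti-EGFRvIII monoclonal antibodies tested by flow cytometry on yeast displaying alanine-substituted fragments, two-color indirect fluorescence with anti-Myc signal tracking fusion protein expression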
T10 construct: mutation is already in the entry
T10 peptide: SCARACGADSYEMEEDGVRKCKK
Source text: as §1, §5

[12] = target: T11, EGFRvIII amino acid residues 15 to 37 with Met27 to Ala mutation (human); experiment: yeast display flow cytometry, Myc-normalized
T11 construct: mutation is already in the entry
T11 sequence (peptide, as listed by the source, change not shown): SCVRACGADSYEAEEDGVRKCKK
Source text: as §1, §5

[13] = target: T12, EGFRvIII amino acid residues 15 to 37 with Glu28 to Ala mutation (human); experiment: yeast display flow cytometry, Myc-normalized
T12 construct: mutation is already in the entry
T12 peptide: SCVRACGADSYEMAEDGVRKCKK
Source text: as §1, §5

[14] = target: T13, EGFRvIII amino acid residues 15 to 37 with Lys37 to Ala mutation (human); experiment: yeast display flow cytometry, Myc-normalized
T13 construct: mutation is already in the entry
T13 peptide: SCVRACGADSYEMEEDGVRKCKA
Source text: as §1, §5

[15] = target: T14, EGFRvIII amino acid residues 15 to 37 with Glu29 to Ala mutation (human); experiment: yeast display flow cytometry, Myc-normalized
T14 construct: mutation is already in the entry
T14 peptide: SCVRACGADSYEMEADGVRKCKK
Source text: as §1, §5

[16] = target: T15, EGFRvIII amino acid residues 15 to 37 with Ser15 to Ala mutation (human); experiment: yeast display flow cytometry, Myc-normalized
T15 construct: mutation is already in the entry
T15 peptide: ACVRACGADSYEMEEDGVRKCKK
Source text: as §1, §5

[17] = target: T16, EGFRvIII amino acid residues 15 to 37 with Ser24 to Ala mutation (human); experiment: yeast display flow cytometry, Myc-normalized
T16 construct: mutation is already in the entry
T16 peptide: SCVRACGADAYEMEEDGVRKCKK
Source text: as §1, §5

[18] = target: T17, EGFRvIII amino acid residues 15 to 37 with Asp23 to Ala mutation (human); experiment: yeast display flow cytometry, Myc-normalized
T17 construct: mutation is already in the entry
T17 peptide: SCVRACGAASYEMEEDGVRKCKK
Source text: as §1, §5

[19] = target: T18, EGFRvIII amino acid residues 15 to 37 with Cys20 to Ala mutation (human); experiment: yeast display flow cytometry, Myc-normalized
T18 construct: mutation is already in the entry
T18 peptide: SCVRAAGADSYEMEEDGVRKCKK
Source text: as §1, §5

[20] = target: T19, EGFRvIII amino acid residues 15 to 37 with Tyr25 to Ala mutation (human); experiment: yeast display flow cytometry, Myc-normalized
T19 construct: mutation is already in the entry
T19 peptide: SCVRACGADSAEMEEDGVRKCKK
Source text: as §1, §5

[21] = target: T20, EGFRvIII amino acid residues 15 to 37 with Cys35 to Ala mutation (human); experiment: yeast display flow cytometry, alanine scan
T20 construct: mutation is already in the entry
T20 peptide: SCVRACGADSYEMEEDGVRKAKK
Source text: as §1, §5

[22] = target: T21, EGFRvIII amino acid residues 15 to 37 with Glu26 to Ala mutation (human); experiment: yeast display flow cytometry, alanine scan
T21 construct: mutation is already in the entry
T21 peptide: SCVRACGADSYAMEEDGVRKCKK
Source text: as §1, §5

[23] = target: T22, EGFRvIII amino acid residues 15 to 37 with Lys36 to Ala mutation (human); experiment: yeast display flow cytometry, alanine scan
T22 construct: mutation is already in the entry
T22 peptide: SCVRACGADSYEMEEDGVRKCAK
Source text: as §1, §5

[24] = target: T23, EGFRvIII amino acid residues 15 to 37 with Val32 to Ala mutation (human); experiment: yeast display flow cytometry, alanine scan
T23 construct: mutation is already in the entry
T23 peptide: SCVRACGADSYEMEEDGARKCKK
Source text: as §1, §5

[25] = target: T24, EGFRvIII amino acid residues 15 to 37 with Lys34 to Ala mutation (human); experiment: yeast display flow cytometry, alanine scan
T24 construct: mutation is already in the entry
T24 peptide: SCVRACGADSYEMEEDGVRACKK
Source text: as §1, §5

[26] = target: T25, EGFRvIII amino acid residues 15 to 37 with Arg33 to Ala mutation (human); experiment: yeast display flow cytometry, alanine scan
T25 construct: mutation is already in the entry
T25 peptide: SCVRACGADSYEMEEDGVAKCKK
Source text: as §1, §5

[27] = target: T3, recombinant human wild type EGFR …; experiment: ELISA Exp 1, mAb supernatant
Procedure: as §2, §3, §4

[28] = target: T4, recombinant human EGFRvIII protein …; experiment: ELISA Exp 1, mAb supernatant
Procedure: as §2, §3, §4

[29] = target: T5, recombinant human wild type EGFR …; experiment: ELISA Exp 1, mAb supernatant
Procedure: as §2, §3, §4

[30] = target: T6, recombinant human EGFRvIII protein …; experiment: ELISA Exp 1, mAb supernatant
Procedure: as §2, §3, §4

[31] = target: T2, EGFRvIII, full length, overexpressed on …; experiment: flow cytometry dose-response on U87MG-EGFRvIII cells, apparent Kd

B1: F265-9C9 (antibody, V domains shown)
VH: QVQLQQPGAELVKPGASVKLSCKASGYTFTSYWMHWVKQRPGQDLEWIGEIDPSDSYTNYNQKFKGKATLTVDKSSSTAYIQLSSLTSEDSALYYCARFDFAYWGQGTLVTVSA
VL: EIVLTQSPTLMAASPGEKVTITCSVSSSISSSNLHWYQQKSETSPKPWIYDTSNLASGVPIRFSGSGSGTSYSLTISSVEAEDAATYYCQQWSSYPLTFGSGTKLEIK
notes: Mouse hybridoma mAb
With B1 the binding result [1] was “binds”, the “% internalization (pHrodo surrogate assay, vs 225 mAb)” value [2] was 87% and the “% survival (DM1 secondary-conjugate ADC surrogate assay, vs mouse IgG)” value [3] was 82%. The “ELISA absorbance 405 nm” value [4] was 0.003 A405, the “ELISA absorbance 405 nm” value [5] was 1.29 A405 and the “ELISA absorbance 405 nm” value [6] was 0.038 A405. For the same binder, the “ELISA absorbance 405 nm” value [7] was 0.503 A405, the “% of binding vs wild-type fragment 15-37” value [8] was 160% and the “% of binding vs wild-type fragment 15-37” value [9] was 22.6%. For the same binder, the “% of binding vs wild-type fragment 15-37” value [10] was 205%, the “% of binding vs wild-type fragment 15-37” value [11] was 87.5% and the “% of binding vs wild-type fragment 15-37” value [12] was 159%. For the same binder, the “% of binding vs wild-type fragment 15-37” value [13] was 87.1%, the “% of binding vs wild-type fragment 15-37” value [14] was 108% and the “% of binding vs wild-type fragment 15-37” value [15] was 138%. The “% of binding vs wild-type fragment 15-37” value [16] was 115%, the “% of binding vs wild-type fragment 15-37” value [17] was 211% and the “% of binding vs wild-type fragment 15-37” value [18] was 63.2%. The “% of binding vs wild-type fragment 15-37” value [19] was 51.9%, the “% of binding vs wild-type fragment 15-37” value [20] was 152% and the binding result [21] was “no binding (tested: 0-15% of wild-type binding)”. B1: no binding (tested: 0-15% of wild-type binding) [22]; no binding (tested: 0-15% of wild-type binding) [23]; no binding (tested: 0-15% of wild-type binding) [24]. For the same binder, the binding result [25] was “no binding (tested: 0-15% of wild-type binding)”, the binding result [26] was “no binding (tested: 0-15% of wild-type binding)” and the “ELISA absorbance 405 nm” value [27] was 0.064 A405. The “ELISA absorbance 405 nm” value [28] was 1.2 A405, the “ELISA absorbance 405 nm” value [29] was 0.21 A405 and the “ELISA absorbance 405 nm” value [30] was 1.72 A405. The Kd [31] was greater than 200 nM.

From patent publication US20220193132A1 (NATIONAL RESEARCH COUNCIL OF CANADA, published 2022)
